Reference: US20150073033

Key:
[1] = molecular target: purified recombinant GST-Bub3 (wild type) (UniProt O43684)
[2] = tested on: purified recombinant His-tagged WT histone H3
[3] = molecular target: purified GST-β-catenin (unphosphorylated) (UniProt P35222)
purified GST-β-catenin (unphosphorylated), sequence (P35222 whole entry): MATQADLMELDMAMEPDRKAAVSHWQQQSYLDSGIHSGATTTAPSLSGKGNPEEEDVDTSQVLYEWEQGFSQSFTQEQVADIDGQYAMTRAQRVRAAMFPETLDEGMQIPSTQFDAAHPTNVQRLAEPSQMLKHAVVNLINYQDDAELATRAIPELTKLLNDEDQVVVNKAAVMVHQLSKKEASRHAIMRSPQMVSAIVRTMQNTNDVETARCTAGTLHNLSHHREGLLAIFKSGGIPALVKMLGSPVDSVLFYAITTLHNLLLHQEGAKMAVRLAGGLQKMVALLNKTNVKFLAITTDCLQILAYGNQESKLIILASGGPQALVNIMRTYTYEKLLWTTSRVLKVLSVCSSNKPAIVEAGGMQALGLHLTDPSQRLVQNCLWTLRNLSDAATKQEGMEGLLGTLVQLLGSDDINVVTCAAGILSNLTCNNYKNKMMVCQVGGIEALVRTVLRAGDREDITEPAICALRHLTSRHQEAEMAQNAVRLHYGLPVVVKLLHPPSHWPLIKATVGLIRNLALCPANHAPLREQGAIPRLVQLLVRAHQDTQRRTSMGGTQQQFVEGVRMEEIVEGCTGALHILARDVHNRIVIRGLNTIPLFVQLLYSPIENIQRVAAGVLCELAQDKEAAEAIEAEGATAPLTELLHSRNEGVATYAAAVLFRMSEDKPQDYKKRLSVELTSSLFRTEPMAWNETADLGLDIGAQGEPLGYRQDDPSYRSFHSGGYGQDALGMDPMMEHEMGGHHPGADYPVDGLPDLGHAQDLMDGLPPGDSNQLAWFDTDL

purified recombinant GST-Bub3 (wild type), sequence (O43684 whole entry): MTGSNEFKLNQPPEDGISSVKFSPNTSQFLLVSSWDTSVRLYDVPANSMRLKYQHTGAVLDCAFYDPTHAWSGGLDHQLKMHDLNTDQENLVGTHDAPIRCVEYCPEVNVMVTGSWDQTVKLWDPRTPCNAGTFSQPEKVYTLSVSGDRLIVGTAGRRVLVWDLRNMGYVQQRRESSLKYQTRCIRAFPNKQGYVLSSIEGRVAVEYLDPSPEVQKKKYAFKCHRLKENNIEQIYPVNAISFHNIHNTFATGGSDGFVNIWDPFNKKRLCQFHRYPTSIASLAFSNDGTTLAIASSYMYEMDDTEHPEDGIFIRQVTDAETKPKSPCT

Substance	in vitro protein kinase assay with PEP (anti-phospho-Tyr immunoblot) [1]	in vitro phosphorylation with PEP (anti-phospho-Thr and phospho-H3-T11 immunoblot) [2]	in vitro protein kinase assay (Tyr and Y333 phosphorylation by immunoblot) [3]
purified recombinant His-PKM2 (wild type)	PKM2, but not PKM2 K367M or PKM1, phosphorylated Bub3	WT PKM2, but not PKM2 K367M kinase-dead mutant (Yang et al., 2011) or PKM1, phosphorylated WT histone H3 but not H3-T11A	
purified active c-Src			active c-Src was able to phosphorylate WT β-catenin
